Laboratory results reported in article PMC9633819 (Nature Communications, 2022).
Where “and” joins values, the source holds several entries; their conditions need not be identical. Identical values can stand only once. Blank lines part the entries; values can stand above or below the binder they belong to.

Experiments:
SAXS Kratky plots = details: glycan changed form; control: contactin 1 with complex glycans
[1] = K562 cell clustering index; details: glycan changed form; control: untreated contactin 1 K562 cells
[2] = molecular target: contactin 1^Ig1–6 HM, C-terminally biotinylated SPR ligand (mouse) (UniProt P12960); assay: SPR; SPR imaging (MX96 SPRi); C-terminally biotinylated contactin 1 ligands spotted on a P-STREP SensEye chip, neurofascin 155^Ig1–6 as analyte; 25 °C; 25 mM HEPES pH 7.5, 150 mM NaCl with 0.005% Tween-20; equilibrium response fitted with a 1:1 Langmuir model
[3] = molecular target: neurofascin 155^Ig1–6 (residues 25–633), high mannose glycans (mouse); assay: SEC-MALS + other: SAXS; dimer to monomers; estimate from the concentration dependence of peak position, molecular weight and Rg; 25 mM HEPES pH 7.5, 150 mM NaCl
[4] = molecular target: T1, contactin 1^fe HM (full ectodomain, residues 21–996), C-terminally biotinylated SPR ligand (mouse, UniProt P12960 21-996, biotin on the C-terminal biotin acceptor peptide; N-linked high mannose glycans); assay: SPR
T1 chain: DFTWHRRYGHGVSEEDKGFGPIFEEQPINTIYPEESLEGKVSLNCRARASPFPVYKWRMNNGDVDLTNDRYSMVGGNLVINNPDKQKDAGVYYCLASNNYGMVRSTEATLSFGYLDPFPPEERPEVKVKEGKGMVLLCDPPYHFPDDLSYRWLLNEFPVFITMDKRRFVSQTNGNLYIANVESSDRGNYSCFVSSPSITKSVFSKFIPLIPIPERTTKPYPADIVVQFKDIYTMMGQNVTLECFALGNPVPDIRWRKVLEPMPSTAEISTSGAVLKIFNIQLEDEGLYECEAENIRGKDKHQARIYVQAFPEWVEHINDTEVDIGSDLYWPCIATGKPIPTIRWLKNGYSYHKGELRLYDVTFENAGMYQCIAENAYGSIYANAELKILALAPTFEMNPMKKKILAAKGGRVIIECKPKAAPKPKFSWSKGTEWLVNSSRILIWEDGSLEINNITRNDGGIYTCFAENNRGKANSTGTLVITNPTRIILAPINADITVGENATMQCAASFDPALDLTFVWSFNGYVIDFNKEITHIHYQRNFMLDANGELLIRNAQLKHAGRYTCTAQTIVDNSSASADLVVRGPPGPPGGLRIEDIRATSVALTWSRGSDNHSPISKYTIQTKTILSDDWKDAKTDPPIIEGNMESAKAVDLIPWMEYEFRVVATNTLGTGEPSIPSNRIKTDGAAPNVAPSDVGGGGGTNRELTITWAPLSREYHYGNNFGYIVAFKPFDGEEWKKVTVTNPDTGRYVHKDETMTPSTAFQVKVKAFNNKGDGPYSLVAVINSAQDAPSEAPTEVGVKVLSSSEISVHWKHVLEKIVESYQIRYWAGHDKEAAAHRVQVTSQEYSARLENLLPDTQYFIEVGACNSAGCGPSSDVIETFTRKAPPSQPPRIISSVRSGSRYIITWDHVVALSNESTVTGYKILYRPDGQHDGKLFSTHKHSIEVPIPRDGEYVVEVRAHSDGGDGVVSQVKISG

B1: contactin 1: high mannose glycans (GnTI- HEK293) (protein)
parent chain: MKMPLLVSHLLLISLTSCLGDFTWHRRYGHGVSEEDKGFGPIFEEQPINTIYPEESLEGKVSLNCRARASPFPVYKWRMNNGDVDLTNDRYSMVGGNLVINNPDKQKDAGVYYCLASNNYGMVRSTEATLSFGYLDPFPPEERPEVKVKEGKGMVLLCDPPYHFPDDLSYRWLLNEFPVFITMDKRRFVSQTNGNLYIANVESSDRGNYSCFVSSPSITKSVFSKFIPLIPIPERTTKPYPADIVVQFKDIYTMMGQNVTLECFALGNPVPDIRWRKVLEPMPSTAEISTSGAVLKIFNIQLEDEGLYECEAENIRGKDKHQARIYVQAFPEWVEHINDTEVDIGSDLYWPCIATGKPIPTIRWLKNGYSYHKGELRLYDVTFENAGMYQCIAENAYGSIYANAELKILALAPTFEMNPMKKKILAAKGGRVIIECKPKAAPKPKFSWSKGTEWLVNSSRILIWEDGSLEINNITRNDGGIYTCFAENNRGKANSTGTLVITNPTRIILAPINADITVGENATMQCAASFDPALDLTFVWSFNGYVIDFNKEITHIHYQRNFMLDANGELLIRNAQLKHAGRYTCTAQTIVDNSSASADLVVRGPPGPPGGLRIEDIRATSVALTWSRGSDNHSPISKYTIQTKTILSDDWKDAKTDPPIIEGNMESAKAVDLIPWMEYEFRVVATNTLGTGEPSIPSNRIKTDGAAPNVAPSDVGGGGGTNRELTITWAPLSREYHYGNNFGYIVAFKPFDGEEWKKVTVTNPDTGRYVHKDETMTPSTAFQVKVKAFNNKGDGPYSLVAVINSAQDAPSEAPTEVGVKVLSSSEISVHWKHVLEKIVESYQIRYWAGHDKEAAAHRVQVTSQEYSARLENLLPDTQYFIEVGACNSAGCGPSSDVIETFTRKAPPSQPPRIISSVRSGSRYIITWDHVVALSNESTVTGYKILYRPDGQHDGKLFSTHKHSIEVPIPRDGEYVVEVRAHSDGGDGVVSQVKISGVSTLSSSLLSLLLPSLGFLVYSEF
structure_or_conformation (SAXS Kratky plots): no change

B2: contactin 1: kifunensine (protein)
parent chain: B1 parent chain
other: homophilic cell clustering [1]: no change

Kd [2]: 220 nM
Kd [3]: 5000 to 30000 nM
Kd [4]: 270 nM and 310 nM
B3: neurofascin 155^Ig1–6 (residues 25–633), high mannose glycans (domain or fragment)
chain: IEIPMDLTQPPTITKQSVKDHIVDPRDNILIECEAKGNPAPSFHWTRNSRFFNIAKDPRVSMRRRSGTLVIDFRSGGRPEEYEGEYQCFARNKFGTALSNRIRLQVSKSPLWPKENLDPVVVQEGAPLTLQCNPPPGLPSPVIFWMSSSMEPITQDKRVSQGHNGDLYFSNVMLQDMQTDYSCNARFHFTHTIQQKNPFTLKVLTNNPYNDSSLRNHPDIYSARGVAERTPSFMYPQGTSSSQMVLRGMDLLLECIASGVPTPDIAWYKKGGDLPSNKAKFENFNKALRITNVSEEDSGEYFCLASNKMGSIRHTISVRVKAAPYWLDEPKNLILAPGEDGRLVCRANGNPKPTVQWMVNGEPLQSAPPNPNREVAGDTIIFRDTQISSRAVYQCNTSNEHGYLLANAFVSVLDVPPRMLSARNQLIRVILYNRTRLDCPFFGSPIPTLRWFKNGQGSNLDGGNYHVYENGSLEIKMIRKEDQGIYTCVATNILGKAENQVRLEVKDPTRIYRMPEDQVAKRGTTVQLECRVKHDPSLKLTVSWLKDDEPLYIGNRMKKEDDSLTIFGVAERDQGSYTCMASTELDQDLAKAYLTVLADQATPTNRLAA
modifications: N-linked high mannose glycans (glycans at Asn316, Asn420, Asn457 and Asn494 are named)
